Earlier results, collected in article PMC5075240.

Target: calmodulin (UniProt P0DP23)

Kd: 50 nM
Substance: TRPV1 C-terminal fragment 767-801 (from UniProt O35433)
